The values that follow are results of earlier work, collected in PMC3433420.

Where two headings read alike, the source gives them in different places.

Among the targets are ABL2 (Homo sapiens) (UniProt P42684); BCAR3 (Homo sapiens) (UniProt O75815); CRK (Homo sapiens) (UniProt P46108); PIK3R3-NC (Homo sapiens) (UniProt Q92569); SHC3 (Homo sapiens) (UniProt Q92529); GRB7 (Homo sapiens) (UniProt Q14451); BLK (Homo sapiens) (UniProt P51451); SLA2 (Homo sapiens) (UniProt Q9H6Q3); PIK3R1-C (Homo sapiens) (UniProt P27986); SYK-NC (Homo sapiens) (UniProt P43405); SLA (Homo sapiens) (UniProt Q13239); PLCG1-NC (Homo sapiens) (UniProt P19174); SUPT6H (Homo sapiens) (UniProt Q7KZ85); SHC4 (Homo sapiens) (UniProt Q6S5L8); SH2D1B (Homo sapiens) (UniProt O14796); SHF (Homo sapiens) (UniProt Q7M4L6); PLCG2-N (Homo sapiens) (UniProt P16885); SHC1 (Homo sapiens) (UniProt P29353); HSH2D (Homo sapiens) (UniProt Q96JZ2); YES1 (Homo sapiens) (UniProt P07947); CRKL (Homo sapiens) (UniProt P46109); TEC (Homo sapiens) (UniProt P42680); DAPP1 (Homo sapiens) (UniProt Q9UN19); RASA1-NC (Homo sapiens) (UniProt P20936); PIK3R3-C (Homo sapiens) (UniProt Q92569).

What all share (settings): cited from earlier work
For series [1], the target named is PIK3R1-N (Homo sapiens) (UniProt P27986).
Series [2] shares this target. This is another data set of the same source.
Series [3] concerns the target PIK3R2-NC (Homo sapiens) (UniProt O00459).
In series [4] the target is ITK (Homo sapiens) (UniProt Q08881).
Series [5] has the same target. This is another data set of the same source.
In series [6] the target is PIK3R2-NC (Homo sapiens) (UniProt O00459). The source holds these as a separate data set.
PIK3R2-NC (Homo sapiens), sequence (O00459 325-721): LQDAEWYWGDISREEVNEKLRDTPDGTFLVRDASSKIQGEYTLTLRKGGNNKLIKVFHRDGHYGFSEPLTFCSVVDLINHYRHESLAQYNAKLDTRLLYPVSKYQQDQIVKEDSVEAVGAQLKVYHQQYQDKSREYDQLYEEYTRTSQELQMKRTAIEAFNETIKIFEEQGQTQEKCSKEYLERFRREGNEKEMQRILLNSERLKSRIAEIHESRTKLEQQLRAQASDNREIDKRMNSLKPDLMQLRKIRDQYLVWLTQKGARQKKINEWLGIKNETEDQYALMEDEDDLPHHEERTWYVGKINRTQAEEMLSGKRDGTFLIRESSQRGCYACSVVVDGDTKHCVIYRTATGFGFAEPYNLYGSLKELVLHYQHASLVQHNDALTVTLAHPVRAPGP

ITK (Homo sapiens), sequence (Q08881 234-343): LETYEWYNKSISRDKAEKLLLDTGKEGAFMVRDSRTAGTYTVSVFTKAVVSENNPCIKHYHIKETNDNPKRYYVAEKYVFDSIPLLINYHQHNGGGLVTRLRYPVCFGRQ
PIK3R1-N (Homo sapiens), sequence (P27986 328-723): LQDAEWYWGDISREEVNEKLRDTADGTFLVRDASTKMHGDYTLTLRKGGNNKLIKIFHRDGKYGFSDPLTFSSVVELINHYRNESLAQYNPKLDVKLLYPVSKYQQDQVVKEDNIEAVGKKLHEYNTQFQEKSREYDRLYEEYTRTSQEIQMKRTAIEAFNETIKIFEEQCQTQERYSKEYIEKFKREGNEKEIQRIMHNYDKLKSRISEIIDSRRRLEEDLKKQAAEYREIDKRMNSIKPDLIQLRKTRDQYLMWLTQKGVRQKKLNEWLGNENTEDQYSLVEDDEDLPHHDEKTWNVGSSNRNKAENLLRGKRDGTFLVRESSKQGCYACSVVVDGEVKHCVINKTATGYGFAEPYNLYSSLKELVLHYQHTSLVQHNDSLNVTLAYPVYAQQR
GRB7 (Homo sapiens), sequence (Q14451 426-532): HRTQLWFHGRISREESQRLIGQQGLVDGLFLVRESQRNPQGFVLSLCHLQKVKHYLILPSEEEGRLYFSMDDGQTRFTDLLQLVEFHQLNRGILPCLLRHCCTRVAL
SLA2 (Homo sapiens), sequence (Q9H6Q3 89-196): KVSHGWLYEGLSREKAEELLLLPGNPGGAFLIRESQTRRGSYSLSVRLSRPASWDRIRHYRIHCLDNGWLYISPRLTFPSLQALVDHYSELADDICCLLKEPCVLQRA
PLCG2-N (Homo sapiens), sequence (P16885 527-740): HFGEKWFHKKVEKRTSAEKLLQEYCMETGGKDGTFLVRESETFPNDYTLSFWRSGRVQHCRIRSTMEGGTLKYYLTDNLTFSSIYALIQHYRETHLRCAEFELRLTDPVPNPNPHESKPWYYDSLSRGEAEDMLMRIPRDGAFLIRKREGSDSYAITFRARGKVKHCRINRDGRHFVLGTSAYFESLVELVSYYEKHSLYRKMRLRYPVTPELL
HSH2D (Homo sapiens), sequence (Q96JZ2 29-130): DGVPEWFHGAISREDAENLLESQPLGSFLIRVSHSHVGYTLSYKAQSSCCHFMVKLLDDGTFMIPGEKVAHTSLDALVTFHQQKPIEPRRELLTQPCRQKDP
CRK (Homo sapiens), sequence (P46108 8-123): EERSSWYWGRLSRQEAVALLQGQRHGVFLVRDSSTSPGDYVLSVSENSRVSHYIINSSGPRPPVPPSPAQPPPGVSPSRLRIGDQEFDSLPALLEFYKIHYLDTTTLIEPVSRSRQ
RASA1-NC (Homo sapiens), sequence (P20936 176-446): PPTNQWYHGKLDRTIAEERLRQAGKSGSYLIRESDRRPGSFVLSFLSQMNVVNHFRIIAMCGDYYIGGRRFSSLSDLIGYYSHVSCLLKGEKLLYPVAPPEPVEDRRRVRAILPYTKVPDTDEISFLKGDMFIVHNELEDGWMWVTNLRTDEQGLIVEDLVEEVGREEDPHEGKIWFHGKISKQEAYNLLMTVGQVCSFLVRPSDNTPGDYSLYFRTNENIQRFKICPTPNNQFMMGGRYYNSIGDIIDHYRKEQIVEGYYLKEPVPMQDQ
PLCG1-NC (Homo sapiens), sequence (P19174 545-761): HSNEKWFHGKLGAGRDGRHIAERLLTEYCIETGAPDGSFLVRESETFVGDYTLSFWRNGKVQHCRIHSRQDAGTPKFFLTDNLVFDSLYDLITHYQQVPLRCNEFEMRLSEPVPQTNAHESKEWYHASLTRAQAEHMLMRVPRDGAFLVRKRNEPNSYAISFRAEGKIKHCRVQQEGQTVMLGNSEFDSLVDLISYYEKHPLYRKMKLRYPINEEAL
BLK (Homo sapiens), sequence (P51451 119-225): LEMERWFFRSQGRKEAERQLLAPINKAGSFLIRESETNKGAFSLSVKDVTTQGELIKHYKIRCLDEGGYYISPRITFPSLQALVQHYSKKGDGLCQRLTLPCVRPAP
SHC3 (Homo sapiens), sequence (Q92529 494-594): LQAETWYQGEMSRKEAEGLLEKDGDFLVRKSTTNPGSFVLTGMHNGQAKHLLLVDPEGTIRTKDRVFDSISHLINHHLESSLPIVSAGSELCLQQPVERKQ
CRKL (Homo sapiens), sequence (P46109 9-107): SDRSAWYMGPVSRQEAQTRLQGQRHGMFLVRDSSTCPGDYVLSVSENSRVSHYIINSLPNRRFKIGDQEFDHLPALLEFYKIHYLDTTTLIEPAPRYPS
SLA (Homo sapiens), sequence (Q13239 79-180): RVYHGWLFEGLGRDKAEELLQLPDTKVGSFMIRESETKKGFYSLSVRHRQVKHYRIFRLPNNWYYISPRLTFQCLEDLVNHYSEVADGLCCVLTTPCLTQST
SHC1 (Homo sapiens), sequence (P29353 483-583): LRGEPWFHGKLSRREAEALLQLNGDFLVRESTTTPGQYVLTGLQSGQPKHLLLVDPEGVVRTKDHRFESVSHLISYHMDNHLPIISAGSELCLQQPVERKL
BCAR3 (Homo sapiens), sequence (O75815 149-258): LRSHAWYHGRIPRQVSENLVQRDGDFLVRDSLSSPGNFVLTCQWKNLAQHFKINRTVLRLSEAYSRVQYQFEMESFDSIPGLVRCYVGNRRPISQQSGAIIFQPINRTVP
SH2D1B (Homo sapiens), sequence (O14796 1-106): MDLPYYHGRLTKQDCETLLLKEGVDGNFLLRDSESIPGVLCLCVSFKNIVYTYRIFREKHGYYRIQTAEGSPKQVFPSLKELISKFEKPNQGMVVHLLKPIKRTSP
DAPP1 (Homo sapiens), sequence (Q9UN19 30-134): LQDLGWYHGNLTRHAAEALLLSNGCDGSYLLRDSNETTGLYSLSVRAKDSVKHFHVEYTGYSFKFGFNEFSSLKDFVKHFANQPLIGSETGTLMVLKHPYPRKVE
SHF (Homo sapiens), sequence (Q7M4L6 318-423): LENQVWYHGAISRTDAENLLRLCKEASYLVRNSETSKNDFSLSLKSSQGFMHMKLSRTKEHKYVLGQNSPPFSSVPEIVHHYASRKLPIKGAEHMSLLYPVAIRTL
SUPT6H (Homo sapiens), sequence (Q7KZ85 1320-1436): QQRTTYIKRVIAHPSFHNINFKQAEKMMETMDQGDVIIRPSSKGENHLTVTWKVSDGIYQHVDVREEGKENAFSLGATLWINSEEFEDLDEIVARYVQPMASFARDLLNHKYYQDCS
YES1 (Homo sapiens), sequence (P07947 153-260): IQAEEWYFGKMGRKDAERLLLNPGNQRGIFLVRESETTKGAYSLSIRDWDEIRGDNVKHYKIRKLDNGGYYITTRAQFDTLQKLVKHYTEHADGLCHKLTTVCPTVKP
ABL2 (Homo sapiens), sequence (P42684 168-268): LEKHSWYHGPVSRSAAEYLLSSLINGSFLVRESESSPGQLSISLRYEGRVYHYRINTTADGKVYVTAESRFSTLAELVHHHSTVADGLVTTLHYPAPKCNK
PIK3R1-C (Homo sapiens), sequence (P27986 328-723): as the sequence (P27986 328-723) above
TEC (Homo sapiens), sequence (P42680 242-350): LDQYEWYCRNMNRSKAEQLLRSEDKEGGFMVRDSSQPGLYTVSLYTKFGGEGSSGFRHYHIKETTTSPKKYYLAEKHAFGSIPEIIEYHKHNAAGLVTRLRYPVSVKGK
SHC4 (Homo sapiens), sequence (Q6S5L8 521-622): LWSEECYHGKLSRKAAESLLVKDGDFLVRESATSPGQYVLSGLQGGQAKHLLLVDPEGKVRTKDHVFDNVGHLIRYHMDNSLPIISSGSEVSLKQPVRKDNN

Regarding …pYEEMRAFQ, the apparent Kd (screen) with PIK3R1-N (Homo sapiens) [1] is 210 nM; in the series with ABL2 (Homo sapiens), 44 nM; with BCAR3 (Homo sapiens), 2000 nM.

…pYLIPQQGFd: the apparent Kd (screen) with PIK3R1-N (Homo sapiens) [2] is 646 nM; with CRK (Homo sapiens) it was 470 nM; with PIK3R3-NC (Homo sapiens), 204 nM; with SHC3 (Homo sapiens) it was 216 nM.

Take …pYLVPQQGF: the apparent Kd (screen) with GRB7 (Homo sapiens), with BLK (Homo sapiens), with SLA2 (Homo sapiens), in the series with PIK3R1-C (Homo sapiens) and with PIK3R2-NC (Homo sapiens) [3] was 2000 nM throughout.

As to …pYWDQDPPE, the apparent Kd (screen) with SYK-NC (Homo sapiens) was 456 nM; with SLA (Homo sapiens), 2000 nM; with ITK (Homo sapiens) [4] it was 224 nM; with ITK (Homo sapiens) [5], 2000 nM; with PLCG1-NC (Homo sapiens), 1780 nM; with SUPT6H (Homo sapiens) it was 2000 nM. Moreover, the apparent Kd (screen) in the series with SHC4 (Homo sapiens) was 2000 nM; with SH2D1B (Homo sapiens) it was 2000 nM; with SHF (Homo sapiens), 586 nM; in the series with PLCG2-N (Homo sapiens), 601 nM; in the series with SHC1 (Homo sapiens) it was 2000 nM; with PIK3R2-NC (Homo sapiens) [6], 2000 nM. Besides, the apparent Kd (screen) was 2000 nM with HSH2D (Homo sapiens); 2000 nM in the series with YES1 (Homo sapiens); 1460 nM with CRKL (Homo sapiens); 1600 nM with TEC (Homo sapiens); 2000 nM with DAPP1 (Homo sapiens); 2000 nM with RASA1-NC (Homo sapiens). In the series with PIK3R3-C (Homo sapiens), the apparent Kd (screen) is 2000 nM.
